Experimental data published in patent publication US20230212587A1, “Mutant Hydroxyphenylpyruvate Dioxygenase Polypeptide, Encoding Gene Thereof and Use Therefor” (Beijing Dabeinong Biotechnology Co., Ltd., priority 2019, published 2023).

B1: N3HPPD-02: native Burkholderia sp. N3 HPPD, SEQ ID NO: 159 (protein)
chain: MQIPNWENPVGTDGFEFIEYTAPDPKALGQLFERMGFTAIARHRHKDVTVYRQGDINFIINAEPHSFAQRFARLHGPSICAIAFRVQDAAKAYQHALELGAWGFDNKTGPMELNIPAIKGIGDSLIYFVDRWRGKNGAQPGAIGDISIYDVDFEPIAGANPNPAGHGLTYIDHLTHNVHRGRMQEWAEFYERLFNFREVRYFDIEGKVTGVKSKAMTSPCGKIRIPINEEGSDTAGQIQEYLDAYHGEGIQHIALGTNDIYGAVDGLRGKEVKLLDTIDTYYELVDRRVPDHGESLDELKKRKILIDGARDDLLLQIFTENQIGPIFFEIIQRKGNQGFGEGNFKALFESIELDQIRRGVVQDKA
modifications: N3HPPD Amino Acid Sequence (Burkholderia)
B2: N2HPPDm-F372A-02: Sphingobium sp. N2 HPPD mutant F372A, SEQ ID NO: 156 (protein)
chain: MTLFDNPLGLDGFEFVEFSAPAKGMLEPVFAAMGFVMIARHRSKDVQLWRQGGINLIANYEPRSPAAYFAAEHGPSACGMGWRVRNAAKAYELAVERGAEPVDVKTGPMELRLPAIRGIGGSIIYLIDRYEDEDGGLSIYDIDFVYEPGVDRHPEGAGFKIIDHLTHNVYGGRMAHWASFYERVFGFREIRYFDIKGEYTGLTSKAMTAPDGKIRIPLNEEGKAGGGQIEEFLRAYNGEGIQHIAFLCDDLIAAWDKLKALGTPLMTAPPATYYEMLDERLPGHGEPVAELQKRGILLDGSTQQGDPRLLLQIAGQATIGPVFFEFIQRKKDEGFGEGNFTALFESMERDQLRRGTLNAGESA
modifications: N2HPPDm-F372A Amino Acid Sequence

System: Arabidopsis thaliana T1 plants
Experiment: Topramezone tolerance of transgenic Arabidopsis thaliana T1 plants (pesticide damage grade by bleached leaf area, score, resistance evaluation)
Format: in vivo
Conditions: HPPDs from different species, 7 DAT; for Classification and statistics of pesticide damage grade Grade 0 / Classification and statistics of pesticide damage grade Grade 1 / Classification and statistics of pesticide damage grade Grade 2 / Classification and statistics of pesticide damage grade Grade 3: number of plants (of 16) in this grade; for Scores: score for pesticide damage 0-100
How it was run: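 Eighteen days after sowing, wild-type and HPPD-transgenic T1 Arabidopsis receive a topramezone spray at 1×, 2× or 4× field rate (25–100 g ai/ha) or water. Seven days later each plant is graded by its proportion of bleached leaf area.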

| Molecule | Classification and statistics of pesticide damage grade Grade 0 (topramezone 25 g ai/ha (1x)) | Classification and statistics of pesticide damage grade Grade 1 (topramezone 25 g ai/ha (1x)) | Classification and statistics of pesticide damage grade Grade 2 (topramezone 25 g ai/ha (1x)) | Classification and statistics of pesticide damage grade Grade 3 (topramezone 25 g ai/ha (1x)) | Classification and statistics of pesticide damage grade Grade 0 (topramezone 100 g ai/ha (4x)) | Classification and statistics of pesticide damage grade Grade 1 (topramezone 100 g ai/ha (4x)) | Classification and statistics of pesticide damage grade Grade 2 (topramezone 100 g ai/ha (4x)) | Classification and statistics of pesticide damage grade Grade 3 (topramezone 100 g ai/ha (4x)) | Scores (topramezone 25 g ai/ha (1x)) | Scores (topramezone 100 g ai/ha (4x)) | Resistance evaluation (topramezone 25 g ai/ha (1x)) | Resistance evaluation (topramezone 100 g ai/ha (4x)) |
| --- | --- | --- | --- | --- | --- | --- | --- | --- | --- | --- | --- | --- |
| B1 | 0 | 6 | 8 | 2 | 0 | 0 | 0 | 16 | 58 | 100 | poorly resistant (poorly resistant plants (scores 34-67)) | non-resistant (non-resistant plants (scores 68-100)) |
| B2 | 16 | 0 | 0 | 0 | 16 | 0 | 0 | 0 | 0 | 0 | highly resistant (highly resistant plants (scores 0-15)) | highly resistant (highly resistant plants (scores 0-15)) |
